B1: Pistol ribozyme (parent)
chain: GGGUCGUUGUUCCAUAAUCGCGUGGAUAUGGCACGCAAGUUUCUACCGGGCACCGUAAAUGUCCGACUGGAGCCGUUCGGGCGGCUAUAAACAGACCUCAGGCCCGAAGCGUGGCGGCACCUGCCGCCGGUGGUAAAAAAGAUCGGAAGAGCACACGUCU

Variants of: B1
Assay: aptazyme ON/OFF ratio, guanine; higher = stronger switching; co-transcriptional cleavage with and without guanine

Variant | aptazyme ON/OFF ratio
U8A U10G U11G | 1.16
U8A U10G U11C | 1.02
U8A U10G U11A | 1.09
U8A U10G C12U C13U | 1.36
U8A U10G C12U C13A | 1.32
U8A U10G C12U C13G | 1.23
U8A U11C C12G C13G | 1.32
U8A U11C C12G C13A | 1.31
U8A U11C C12G C13U | 1.12
U8A U11G C13G | 1.04
U8A U11G C13U | 1.04
U8A U11G C13A | 1.03
U8A U10G | 1.62
U8A U10G U11C C12G C13U | 1.38
U8A U10G U11C C12G C13G | 1.25
U8A U10G U11C C12G C13A | 1.41
U8A U10G U11A C12U | 1.12
U8A U10G U11A C12A | 1.06
U8A U10G U11A C12G | 1.1
U8A U11A C12A | 1.07
U8A U11A C12U | 1.19
U8A U11A C12G | 1.2
U8A U10G C13A | 1.52
U8A U10G C13G | 1.23

Variant | aptazyme ON/OFF ratio
U8A U10G C13U | 1.18
U8A U11C C13A | 1.13
U8A U11C C13U | 1.09
U8A U11C C13G | 1.08
U8A U10G C12G C13A | 1.37
U8A U10G C12G C13G | 1.12
U8A U10G C12G C13U | 1.34
U8A U11C C12A | 1.29
U8A U11C C12G | 1.51
U8A U11C C12U | 1.54
U8A U10G U11A C12A C13G | 1.15
U8A U10G U11A C12A C13A | 1.3
U8A U10G U11A C12A C13U | 1.11
U8A U10G U11G C12G C13G | 1.06
U8A U10G U11G C12G C13U | 1.32
U8A U10G U11G C12G C13A | 1.45
U8C G9A U10A C12U C13A | 1.16
U8C G9A U10A C12U C13G | 1.24
U8C G9A U10A C12U C13U | 1.33
U8C G9A C12U C13U | 1.25
U8C G9A C12U C13G | 1.19
U8C G9A C12U C13A | 1.17
U8A U10G U11A C12G C13U | 1.15
U8A U10G U11A C12G C13G | 1.51

Variant | aptazyme ON/OFF ratio
U8A U10G U11A C12G C13A | 1.2
U8A U11G C12A C13G | 1.17
U8A U11G C12A C13U | 1.2
U8A U11G C12A C13A | 1.15
U8A U10G U11C C12A C13U | 1.21
U8A U10G U11C C12A C13G | 1.14
U8A U10G U11C C12A C13A | 1.26
U8C G9A U10A C12A C13A | 1.17
U8C G9A U10A C12A C13U | 1.31
U8C G9A U10A C12A C13G | 1.13
U8C C12U C13A | 1.26
U8C C12U C13G | 1.39
U8C C12U C13U | 1.28
U8A U11A C12G C13A | 1.18
U8A U11A C12G C13G | 1.06
U8A U11A C12G C13U | 1.17
U8A U11G C12U C13G | 1.1
U8A U11G C12U C13U | 1.11
U8A U11G C12U C13A | 1.14
U8C G9A C12G C13G | 1.27
U8C G9A C12G C13U | 1.26
U8C G9A C12G C13A | 1.23
U8A U11A C13A | 1.19
U8A U11A C13G | 1.05

Variant | aptazyme ON/OFF ratio
U8A U11A C13U | 1.15
U8C C12G C13U | 1.31
U8C C12G C13A | 1.19
U8C C12G C13G | 1.15
U8C C12A C13G | 1.1
U8C C12A C13A | 1.24
U8C C12A C13U | 1.21
U8C | 3.02
U8C G9A C13G | 1.07
U8C G9A C13U | 1.43
U8C G9A C13A | 1.22
U8A U10G U11A C12U C13A | 1.42
U8A U10G U11A C12U C13U | 1.31
U8A U10G U11A C12U C13G | 1.35
U8A U10G U11A C13A | 1.07
U8A U10G U11A C13U | 1.13
U8A U10G U11A C13G | 1.12
U8A U11G C12G | 1.18
U8A U11G C12A | 1.09
U8A U11G C12U | 1.28
U8C G9A U10A U11A | 1.47
U8A U10G C12A C13U | 1.23
U8A U10G C12A C13A | 1.23
U8A U10G C12A C13G | 1.09

Variant | aptazyme ON/OFF ratio
U8C G9A U10A C13U | 1.42
U8C G9A U10A C13G | 1.05
U8C G9A U10A C13A | 1.17
U8A U10G C12U | 1.58
U8A U10G C12A | 1.31
U8A U10G C12G | 1.29
U8C G9A | 1.78
U8A U10G U11G C12U C13A | 1.15
U8A U10G U11G C12U C13U | 1.43
U8A U10G U11G C12U C13G | 1.28
U8A U10C U11G C13G | 1.13
U8A U10C U11G C13U | 1.19
U8A U10C U11G C13A | 1.21
U8A U11A C12U C13U | 1.18
U8A U11A C12U C13A | 1.23
U8A U11A C12U C13G | 1.21
U8C C12U | 1.49
U8C C12G | 1.38
U8C C12A | 1.52
U8C G9A U10A U11A C12A C13A | 1.15
U8C G9A U10A U11A C12A C13G | 1.15
U8A U10G U11G C12A C13U | 1.44
U8A U10G U11G C12A C13A | 1.18
U8A U10G U11G C12A C13G | 1.15

Variant | aptazyme ON/OFF ratio
U8A U10G U11C C12G | 1.53
U8A U10G U11C C12U | 1.04
U8A U10G U11C C12A | 1.49
U8C G9A U10A U11A C12A | 1.3
U8A U10G U11C C13G | 1.11
U8A U10G U11C C13A | 1.06
U8A U10G U11C C13U | 1.04
U8A U10G U11C C12U C13G | 1.27
U8A U10G U11C C12U C13A | 1.3
U8A U10G U11C C12U C13U | 1.2
U8C G9A U10A C12G | 1.29
U8C G9A U10A C12A | 1.22
U8C G9A U10A C12U | 1.31
U8C G9A C12A C13G | 1.14
U8C G9A C12A C13A | 1.33
U8C G9A C12A C13U | 1.17
U8A U11C C12U C13G | 1.33
U8A U11C C12U C13A | 1.38
U8A U11C C12U C13U | 1.37
U8A U11C | 1.12
U8A U11A | 1.14
U8A U11G | 1.25
U8A U11G C12G C13U | 1.47
U8A U11G C12G C13G | 1.27

Variant | aptazyme ON/OFF ratio
U8A U11G C12G C13A | 1.17
U8C C13A | 1.36
U8C C13G | 1.11
U8C C13U | 1.55
U8C G9A C12A | 1.35
U8C G9A C12G | 1.26
U8C G9A C12U | 1.38
U8C G9A U10A C12G C13A | 1.14
U8C G9A U10A C12G C13G | 1.18
U8C G9A U10A C12G C13U | 1.31
U8C G9A U10A | 1.78
U8A U10G U11G C12G | 1.23
U8A U10G U11G C12A | 1.11
U8A U10G U11G C12U | 1.48
U8A U10G U11G C13U | 1.3
U8A U10G U11G C13G | 1.28
U8A U10G U11G C13A | 1.33
U8A U11C C12A C13G | 1.17
U8A U11C C12A C13U | 1.38
U8A U11C C12A C13A | 1.24
U8A U11A C12A C13U | 1.25
U8A U11A C12A C13G | 1.16
U8A U11A C12A C13A | 1.15
